Data as given in the DeepSol protein solubility set.

Test: soluble on expression in E. coli; label from the status in PepcDB or PDB records
With “MDKKVYNTYVSILKNELVVALGCTEPIAIAYAGAKVREVLEAMPDRCEINCSGNIVKNVKGVTVPNSGGMKGIDTAATLGIVGGNVKRILAVLEDITPEQIETTQKLVKEGFCSCGLIEGVENLYIIITAYAGEESATVEIRDYHSNITKIVKNGKIIFSTDDEQSEQSSGPDKSLLNVKDILEFADCVDLSDISEVISRQIECNTAISQEGLNNPWGAQVGRTLLDTFGSDVAIRAKAAAAAGSDARMSGCPMPVVINSGSGNQGMTVSLPIIEYAKEYNISDEGLYRALVAGNLISLHQKKYIGSLSAYCGAVSAACGSGVGIAYMLGASYDEICGIITDTIATIGGMVCDGAKPSCAAKIASAVDCALTAFHLSKNKRVFQPGEGLVKETVEDTIQSIGRMGREGMKATDIEILNIMLEN” the “soluble on expression in E. coli” value was “not soluble”. In the case of “MGCKISTEFCSDNPVGSISTSKVHPTDLSTPSYAIKPVEFYEEPLKDDQLFYKVALAKKEYREKEKDKKEQLSSNRRVSLQVEPNKLPIPLTRSSSLSSIMENRPPSGISNSSFIRSRNTASRRFTIDTSRAKSNQYVVSLCSKKIGIIEYPDGRSDKQPCDVYWHNVVLSDMNKIVTSPQSRVNKFPGMTELAKKISLTHSISSMQKLFPDEYAFYPNSWFLPAHLADFHAFYRKAQALGKTEMWFIVKPDEGAQGTGIYLINSPNQIRNVDQRQLVQEYVADPLLMNDKLKFDFRVYGVIKSINPLSIYVAREGMARFCTEKYEKPDSSNFKNLYAHLTNYSLNKANEAYVHSNTLQDQTRGSKRLLSTVFHQLESRGVKTKRLWHDIKLILVKTTLAMLPEIMLHYEHHFYDSTGPQCFQIMGFDVMIREDGTPILLEVNAAPSLTADHIVPHPGRTLLEGGQRVRSIVDEVIKIPLVRDTLLLVLGLMEEEYQNNSLKGETKSLDDMQTIKQRRKPHLSEIFPTRYGAHSGHLLFLDKAMYIYMQFVQLRSNVNITNAGLKQFVRKCNLIDIIPVVHVDAKVSEINYYFTGEKRTNGNGLPFHAFLMFLFFIAEKKFVLENDLLSKVQRLLSFCDMSLRRYGVRSARLRRAEVDSTIGNVEIYMLPSRMARNRSGTNGRKQNFTDDNNNPNSFAHLPKINERL”, the “soluble on expression in E. coli” value is reported as “not soluble”. For “MGSDKIHHHHHHMLLGSFQSVLEARNRDEFRGEVVRFAKRLGFETVSAITVVDHPVGDTEFVAIDNAPDAYKDAIEDPKAGQLDPVMQHCKRQSVPIIWDQSTYVSAGQGSMWEAQARFGFRTGICLALHMPEGRHFVIGVDRDQALPKDRGEVTRLVADLQLFAVHAQDTAMRVLVPERLQLERPKLTPRELDSLRWTMDGKTAWEVGSIMGISERTAVLHINNAMHKLACTNKHQAVLKALRLGLLR”, the “soluble on expression in E. coli” value was “not soluble”. In the case of “VIGYEYPDWIWGWTNTVTYKNFTLSFTLDGRVGGMAHSKTNQAMWNSGAHIDSDNQWRYDEVVNKKTNFVGSGVKVVSGSVDYDSNGKIIHDNRVFAPNDVQVSYESYMKSTNPYIGTVTRQNVFDETFFKLRDLSLSYQMPKSVCDKLHMKGLTLAFVGQNLFVWTKEFRFTDPDSDSDNLSSPSTRYLGFNVKLDF”, the “soluble on expression in E. coli” value is reported as “not soluble”. With “MSAVALPRVSGGHDEHGHLEEFRTDPIGLMQRVRDELGDVGTFQLAGKQVVLLSGSHANEFFFRAGDDDLDQAKAYPFMTPIFGEAVVFDASPERRKEMLHNAALRGEQMKGHAATIEDQVRRMIADWGEAGEIDLLDFFAELTIYTSSACLIGKKFRDQLDGRFAKLYHELERGTDPLAYVDPYLPIESFRRRDEARNGLVALVADIMNGRIANPPTDKSDRDMLDVLIAVKAETGTPRFSADEITGMFISMMFAGHHTSSGTASWTLIELMRHRDAYAAVIDELDELYGDGRSVSFHALRQIPQLENVLKETLRLHPPLIILMRVAKGEFEVQGHRIHEGDLVAASPAISNRIPEDFPDPHDFVPARYEQPRQEDLLNRWTWIPFGAGRHRCVGAAFAIMQIKAIFSVLLREYEFEMAQPPESYRNDHSKMVVQLAQPAAVRYRRRTGVHHHH” the “soluble on expression in E. coli” value was “soluble”. For “MGSDKIHHHHHHGDIYNGTTMGVTFATGTQSVSFPSTGYEGFDVEVLRAKSSEATTINLSATLVVGDKEQELPASITVPSSVSFAAGEFKTNIHVTVGDITPGQNYKVKISLPEEMVTIDQTSDKVITVYRDYTFSSLGTGTFKSAAMAEEGEDFTTWEVEVQKADQISWYKAMNLYEKGYNIVFKVNEANEVTVESQPAWKHASYGEVFVSGKGALEDGVITVKLSHDVPNVGGFGEFKEILYLPAK”, the “soluble on expression in E. coli” value was “not soluble”. With “EKGLEIAQERKARDEGWGDSIATMEMILKNAQGESSTRLMRLKSLEVEGDGDKGLTIFDQPRDVTGTAFLNHSHTIGADDQWLYLPALKRVKRISSRNKSGPFMGSEFAYEDLSSFEIEKYRFNHLKDEKFNGQDVFVLEQIPTDKNSGYTKQVVWLDKAHYRPLKVEFYDRKGALLKTLTFANYKQYLDKYWRAHTMAMTNHQTGKSTELNTSDLRFQTGLEENDFNKNVLKR” the “soluble on expression in E. coli” value was “soluble”. In the case of “MGSDKIHHHHHHMADTTPDVETDKCDDLLESLRRGRPAAGQDPVKRSQIIDGARRVFIEKGFEAASMNDITREAGVSKGTIYVYFANKEELFEALIEEERGTIFKNMYDMLDRADDLRQTLVKFGKVLSMKITSARVIQAQRTVIGASDRIPDMGARFYERGPKRGHDKVVKFLNAAIERGLLKIDDVDLAAYQFTELCLAGLFRQCIFAYRTKAPSQEEIDHIVRSGVDMFLKNYGTEQLAEEESHQMIALEAKA”, the “soluble on expression in E. coli” value is reported as “not soluble”. For “MGSDKIHHHHHHMAITIQFSNYALKTDETLIQRIQFVYSPLNELFRSLHVLLNPRHHGTNIDWVIRIQNKLTKEFYENLHYFRLFYELGVSPILLCNFRYHATTIEEEIQNLKKFLDELSTAQLIEHLEKVTSDRENSFIPTLARGLEWKDFSLNKDNQLLSDLRKDASSVYQHLFSFVDWYRQEIFDETWESKDIQRKLLTEIQHQASFLKESGFKAMFNHLQIDRIHWRKDRLVIIKPFDKDIQLKDSDSIMLLPSYFIWPHLFVESFNQGIAVTYDITEQPSYYNATPENLITIFKALSDPVRLQIMNYVIDKPSTTQSLAQILVMSNSSVSRHLQILKEANLLTTTKAKKFVLYEPTQLITQLMPNFYHFFKN”, the “soluble on expression in E. coli” value was “not soluble”. With “MTKQQIEKLADLLPPFAATLYLDMIPEFQEGYASYVYQTPKQDIQKRRIKQLTKNFERLLDTPSFYVMPVTRKTAEQLLADKGLAYHLLSTVAANQVFAAAVNEDQMLFQVLRNGARVAFVILQEKGEFLEMTLGILETVTENEVPAAIVEAVQTYLLADMQEKLPSLSIMVSQESSKLFYQEQGFVLLAKGCKPGNENDSDVCQLVKYFSKP” the “soluble on expression in E. coli” value was “not soluble”. With “MGSDKIHHHHHHMNQTLRIGSGAAWWGDRVEPAALNAEHGALDYLCFETMAEATVSAAQVRLRRDSSFAGYDTYLDERMRAVLPACMRHGTRIISNQGWINPTGAAERIVQLLRDAGQHGVRVAAVCGSLITDRVLELADRVLENGAPVRSLAPDLISAEVYLGAEPIVAALRAGAQIVVTGRVADPSIFLAPMMHGFGWDPLDHERVGAGSAIGHLLECGAQVTGGYFCDPGFKELPEPWNFAFPIAEVQSDGTAVITKVAGSGGGVTLQTVKEQMLYEVHDPANYLTPDVVVDFTQARLEQIGPDRVRVTGLTGKPRTPTLKVTIGCAEGFIGEDMFFYAGPGALRRAQWARKILQERFRIVQLQAEELRIDFLGLNAIHGAATPADAVEPYEVAVRVAARTKTRAEAAKVGREVDGMAVSGIAHTGKRVPHQERWREVIGLWSALVPREAVPAHICYFES” the “soluble on expression in E. coli” value was “not soluble”. For “MPNDVDNTKITLSLGKCGYLPQDVRTMTKFDKNTKQIRTFAFVEFSNRETAEQWMTDYEGWLTLDDGRTLAVEYAKGDPAAGSGNKGDDWICAHCSMNNFVKRQTCFKCEISKDQSMELEKLGAHMVGMTPCDTLLIRGLPDGINNSLIFDSLGALVCLSSISMIKLSESKRFAYLQMKSADEAKMLLNLTYKSPIRIKDKDVQVSWCRDSMSKLIQQQMTMLTAGPGKNSVATGSLAQGNMTGAEIAAAALSKANAVRQASQQVGQIMTGLPAPAANMIPPNFSVPPPNLSVPPPMQATQPEHQNGVIGMTQTPKGLLPRYLPPNPLTFAHDPNLGYYVDPITKFCYDSATGYYFNNATSQWCNWDLTHHTYFPVETPAVINSADPEEEKMKKNEEGPKTAQDLVKDMAKWAKRQEKDKKKVQISIKGKETKGIELKNVFSNEKQKRIAQTAALFDDDEEEDQEEEVRGRRSEEPSTSSSFSSVPLAPRKSTLQDVRDAMERALYDETKKTCMLCKRAFSDVEVLRKHVEKSDLHRNNLEAKRAEWGRETAAKLQEEEEDASAPDLPKIVYRDRAKERRRQFGIDSTGYAFDVMGGPPGPTSVRHEETIRKVSEEASKRPLDESNIGNRLLKSMGWKEGQGVGKHAQGIVNPIEAERFVQGAGLGAAGSKMRHGAEASHKEKTRQALYSRYHDA”, the “soluble on expression in E. coli” value was “not soluble”. In the case of “MLKKTLAALALGSALFTAGQAMAADYKIDKEGQHAFIEFRIKHLGYSWLYGRFNDFDGSFTFDEKNPSADKVKVTINTNSVDTNHAERDKHLRSGDFLNVSKNPTATFESTEVKANGDSADITGNLTLNGVTKPVTIKAKLIGQGDDPWGGYRAGFEGSATLKLKDFGIKMDLGPASQEVELLLSVEGIRQ”, the “soluble on expression in E. coli” value is reported as “not soluble”. With “MAHHHHHHMCLDWKYNYMKTRLKVLENNEKDEEIERKLQNNLNIKSLGYVLKAIEILKRKEKMKRYSTFDRHLSYFKKNNINKPQYNEKKILEHRLWAIGCELIEVIGDGNCLFRSISRNLFHKQKYHMYVRKKCVEYMINYKEEYSIYFENNEFQQYIKNMSKNGYWGDELCIKATADAFDCIIYIITSTLENWHLKYESKNNNGMYKKCVFLAYSSPTHYDCFKLMQR” the “soluble on expression in E. coli” value was “not soluble”. With “MNEKQKRFADEYIMNGCNGKKAAISAGYSKKTAESLASRLLRNVNVSEYIKERLEQIQEERLMSITEALALSASIARGEPQEAYSKKYDHLNDEVEKEVTYTITPTFEERQRSIDHILKVYGAYIDKKEITQKNIEINIGEYDDESLEHHHHHH” the “soluble on expression in E. coli” value was “soluble”. In the case of “MEIQIVTGFLGAGKTTFLNRYLPLLSGKTVVIENEFGDIGIDGDRIQEDIPVREIFAGCICCSLAMDFRKGIKEIAENFHPDRILIEPSGVGRLTDIVKACQMAREREKVSLQITKLIAIVDMASFEEYIEGFGAFYQDQIERAGLLLLSHVEAENKAQKEIIIGRLKELNPDAILYDGDWRQLENEELLKLLEEAPDYDEDARRDAAFAALPADKVFSSVSFMDLPQMRIEDLEAIMKALEKEEYGYILRAKGWIETMEKGLVHFDFTPTVSKYREEKNPAGTGGEAVVIGCGLNQAALEMLFRRKNILEHHHHHH”, the “soluble on expression in E. coli” value is reported as “soluble”. With “GSHMNQCPEHSQLTTLGVDGKEFPEVHLGQWYFIAGAAPTKEELATFDPVDNIVFNMAAGSAPMQLHLRATIRMKDGLCVPRKWIYHLTEGSTDLRTEGRPDMKTELFSSSCPGGIMLNETGQGYQRFLLYNRSPHPPEKCVEEFKSLTSCLDSKAFLLTPRNQEACELSNN” the “soluble on expression in E. coli” value was “soluble”. In the case of “MGACWSDNPKKVLEMLSPMNIIAITRSIPENTPNSWFIYWLTKVEEGEVRENIYAISPTKLEILPDLVKKALKLGYDGVYIDGIEALVIENGFKSVAKFLLHIKDIVLAENKFIILTLDPRALKEEEIKIIEKEFKKLELSLEHHHHHH”, the “soluble on expression in E. coli” value is reported as “not soluble”. For “NKNFWLGVRGNFTYATGKYEYVEEPYRPYPWLSHIGKRIEQSYGLVAERLFIDEEDIANSPVQTYGEYMPGDIKYKDINNDGIINDEDIVPIGFAKSPEIVYGFGVSMGYKNFDISCFFQGAARSSFFINSKATNPFMQMDLGGNNLNGMMQAYADDYWSESNRNIYATFPRLSTTDIANNNRNSTWWLRDGSYLRLKSVEIGYTLPKRLTSHLGMSNLRIYASGLNLFAWNRFKLWDVEQGNDGMQYPIQAVYNFGINLSF”, the “soluble on expression in E. coli” value was “not soluble”.
